Source: patent US20220041658A1 (PROTAGONIST THERAPEUTICS, published 2022)
Positions of bridges follow the written chain, without caps; N, C: chain ends. Non-standard residues stand in square brackets, D forms with d. Trp(7-Me) = Cc1cccc2c(C[C@H](N)C(=O)O)c[nH]c12; 2Nal = N[C@@H](Cc1ccc2ccccc2c1)C(=O)O; AEF = NCCOc1ccc(C[C@H](N)C(=O)O)cc1; Cit = NC(=O)NCCC[C@H](N)C(=O)O; Pen = CC(C)(S)[C@H](N)C(=O)O; αMeK = C[C@](N)(CCCCN)C(=O)O; βAla = NCCC(=O)O

T1: interleukin-23 receptor (IL-23R) (human, UniProt Q5VWK5 24-629)
T1 sequence (looked up): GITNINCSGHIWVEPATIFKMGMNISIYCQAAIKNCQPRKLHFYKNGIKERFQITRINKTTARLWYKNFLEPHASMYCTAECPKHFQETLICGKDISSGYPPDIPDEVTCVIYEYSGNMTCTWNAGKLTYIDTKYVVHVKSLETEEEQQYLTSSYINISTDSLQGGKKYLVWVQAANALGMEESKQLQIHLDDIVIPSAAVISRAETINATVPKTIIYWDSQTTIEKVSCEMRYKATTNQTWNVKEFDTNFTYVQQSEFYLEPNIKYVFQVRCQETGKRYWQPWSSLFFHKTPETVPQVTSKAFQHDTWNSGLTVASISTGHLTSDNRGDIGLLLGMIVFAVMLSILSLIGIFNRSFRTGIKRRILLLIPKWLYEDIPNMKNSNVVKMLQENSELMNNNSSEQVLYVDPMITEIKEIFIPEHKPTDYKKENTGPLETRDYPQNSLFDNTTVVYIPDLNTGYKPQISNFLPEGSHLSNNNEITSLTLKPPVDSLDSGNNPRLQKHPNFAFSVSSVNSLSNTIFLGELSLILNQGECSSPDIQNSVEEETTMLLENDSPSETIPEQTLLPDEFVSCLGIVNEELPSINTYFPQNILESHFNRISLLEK

B1: Peptide of SEQ ID NO: 223 (peptide)
peptide: XNTXQXXXXKXX
modifications: Ac-[Pen]-NT-[W(7-Me)]-Q-[Pen]-Phe[4-(2-aminoethoxy)]-[2-Nal]-[a-MeLeu]-[Lys(Ac)]-[N-MeAla]-[bA]-NH2; Pen-Pen disulfide
B2: Peptide of SEQ ID NO: 245 (peptide)
peptide: XNTXKXXXXKNL
modifications: Ac-[Pen]-NT-[W(7-Me)]-[Lys(Ac)]-[Pen]-Phe[4-(2-aminoethoxy)]-[2-Nal]-[a-MeLys]-[Lys(Ac)]-N-[(D)Leu]-NH2; Pen-Pen disulfide
B3: Peptide of SEQ ID NO: 259 (peptide)
peptide: Ac-[Pen]NT[Trp(7-Me)][Cit][Pen][AEF][2Nal][αMeK]K(Ac)N[dY]-NH2
modifications: disulfide 1-6
SMILES: CC(=O)NCCCC[C@H](NC(=O)[C@](C)(CCCCN)NC(=O)[C@H](Cc1ccc2ccccc2c1)NC(=O)[C@H](Cc1ccc(OCCN)cc1)NC(=O)[C@H]1NC(=O)[C@H](CCCNC(N)=O)NC(=O)[C@H](Cc2c[nH]c3c(C)cccc23)NC(=O)[C@H]([C@@H](C)O)NC(=O)[C@H](CC(N)=O)NC(=O)[C@@H](NC(C)=O)C(C)(C)SSC1(C)C)C(=O)N[C@@H](CC(N)=O)C(=O)N[C@H](Cc1ccc(O)cc1)C(N)=O
B4: Peptide of SEQ ID NO: 232 (peptide)
peptide: XNTXQXXXXKNX
modifications: Ac-[Pen]-NT-[W(1-Me)]-Q-[Pen]-Phe[4-(2-aminoethoxy)]-[2-Nal]-[a-MeLys]-[Lys(Ac)]-N-[bA]-NH2; Pen-Pen disulfide
B5: Peptide of SEQ ID NO: 225 (peptide)
peptide: XNTXQXXXXKXX
modifications: Ac-[Pen]-NT-[W(7-Me)]-Q-[Pen]-Phe[4-(2-aminoethoxy)]-[2-Nal]-[a-MeLeu]-[Lys(Ac)]-[a-MeLeu]-[bA]-NH2; Pen-Pen disulfide
B6: Peptide of SEQ ID NO: 218 (peptide)
peptide: XNTXQXXXXKTX
modifications: Ac-[Pen]-NT-[W(7-Me)]-Q-[Pen]-Phe[4-(2-aminoethoxy)]-[2-Nal]-[a-MeLeu]-[Lys(Ac)]-[(D)Thr]-[bA]-NH2; Pen-Pen disulfide
B7: Peptide of SEQ ID NO: 208 (peptide)
peptide: XNTXQXXXXKLX
modifications: Ac-[Pen]-NT-[W(7-Me)]-Q-[Pen]-Phe[4-(2-aminoethoxy)]-[2-Nal]-[a-MeLeu]-[Lys(Ac)]-L-[bA]-NH2; Pen-Pen disulfide
B8: Peptide of SEQ ID NO: 205 (peptide)
peptide: XNTXQXXXXKGX
modifications: Ac-[Pen]-NT-[W(7-Me)]-Q-[Pen]-Phe[4-(2-aminoethoxy)]-[2-Nal]-[a-MeLeu]-[Lys(Ac)]-G-[bA]-NH2; Pen-Pen disulfide
B9: Peptide of SEQ ID NO: 226 (peptide)
peptide: XNTXQXXXXKXX
modifications: Ac-[Pen]-NT-[W(7-Me)]-Q-[Pen]-Phe[4-(2-aminoethoxy)]-[2-Nal]-[a-MeLeu]-[Lys(Ac)]-[bA]-[bA]-NH2; Pen-Pen disulfide
B10: Peptide of SEQ ID NO: 207 (peptide)
peptide: XNTXQXXXXKAX
modifications: Ac-[Pen]-NT-[W(7-Me)]-Q-[Pen]-Phe[4-(2-aminoethoxy)]-[2-Nal]-[a-MeLeu]-[Lys(Ac)]-A-[bA]-NH2; Pen-Pen disulfide
B11: Peptide of SEQ ID NO: 238 (peptide)
peptide: Ac-[Pen][Cit]T[Trp(7-Me)]Q[Pen][AEF][2Nal][αMeK]K(Ac)N[βAla]-NH2
modifications: disulfide 1-6
SMILES: CC(=O)NCCCC[C@H](NC(=O)[C@](C)(CCCCN)NC(=O)[C@H](Cc1ccc2ccccc2c1)NC(=O)[C@H](Cc1ccc(OCCN)cc1)NC(=O)[C@H]1NC(=O)[C@H](CCC(N)=O)NC(=O)[C@H](Cc2c[nH]c3c(C)cccc23)NC(=O)[C@H]([C@@H](C)O)NC(=O)[C@H](CCCNC(N)=O)NC(=O)[C@@H](NC(C)=O)C(C)(C)SSC1(C)C)C(=O)N[C@@H](CC(N)=O)C(=O)NCCC(N)=O
B12: Peptide of SEQ ID NO: 206 (peptide)
peptide: XNTXQXXXXKXX
modifications: Ac-[Pen]-NT-[W(7-Me)]-Q-[Pen]-Phe[4-(2-aminoethoxy)]-[2-Nal]-[a-MeLeu]-[Lys(Ac)]-[Cit]-[bA]-NH2; Pen-Pen disulfide
B13: Peptide of SEQ ID NO: 239 (peptide)
peptide: XKTXQXXXXKNX
modifications: Ac-[Pen]-[Lys(Ac)]-T-[W(7-Me)]-Q-[Pen]-Phe[4-(2-aminoethoxy)]-[2-Nal]-[a-MeLys]-[Lys(Ac)]-N-[bA]-NH2; Pen-Pen disulfide
B14: Peptide of SEQ ID NO: 234 (peptide)
peptide: XNTXXXXXXKNX
modifications: Ac-[Pen]-NT-[W(7-Me)]-[a-MeLys]-[Pen]-Phe[4-(2-aminoethoxy)]-[2-Nal]-[a-MeLeu]-[Lys(Ac)]-N-[bA]-NH2; Pen-Pen disulfide
B15: Peptide of SEQ ID NO: 242 (peptide)
peptide: XNTXKXXXXKNX
modifications: Ac-[Pen]-NT-[W(7-Me)]-[Lys(Ac)]-[Pen]-Phe[4-(2-aminoethoxy)]-[2-Nal]-[a-MeLys]-[Lys(Ac)]-N-[bA]-NH2; Pen-Pen disulfide

Key:
[1] = biological target: T1, interleukin-23 receptor (IL-23R); test: cell-based or functional assay
[2] = biological target: T1, interleukin-23 receptor (IL-23R); test: cell-based or functional assay; remark: listed apart in the source

NK Cell Assay IC50 [1] [nM] | pStat3 HTRF IC50 [2] [nM] | Binder
8.3 | 134 | B1
2.7 | 0.51 | B2
7.6 | 0.607 | B3
9 | 4.5 | B4
114 | 56.7 | B5
50.2 | 11 | B6
7.8 | 5.39 | B7
16.6 | 4.46 | B8
5.12 | 1.91 | Ac-[Pen]NT[Trp(7-Me)]K(Ac)[Pen][2Nal][2Nal][αMeK]K(Ac)N[dL]-NH2 (disulfide 1-6 (inferred)) [Peptide of SEQ ID NO: 289]
9.55 | 25.7 | B9
8.4 | 1.46 | B10
2.99 | 1.06 | B11
21.4 | 12 | B12
4.1 | 1.66 | B13
7.7 | 3.48 | B14
2.37 | 0.641 | B15
